The text below walks through data of article PMC4304843, “Human Mitochondrial Hsp70 (Mortalin): Shedding Light on ATPase Activity, Interaction with Adenosine Nucleotides, Solution Structure and Domain Organization” (PLoS ONE, 2015).

Assay [1] deals with Human Hsp70-1A, recombinant (human) (UniProt P0DMV8).
The target in assay [2] is Human mitochondrial Hsp70 (mortalin), recombinant (human) (UniProt P38646).
Human mitochondrial Hsp70 (mortalin), recombinant (human), sequence (P38646 47-679): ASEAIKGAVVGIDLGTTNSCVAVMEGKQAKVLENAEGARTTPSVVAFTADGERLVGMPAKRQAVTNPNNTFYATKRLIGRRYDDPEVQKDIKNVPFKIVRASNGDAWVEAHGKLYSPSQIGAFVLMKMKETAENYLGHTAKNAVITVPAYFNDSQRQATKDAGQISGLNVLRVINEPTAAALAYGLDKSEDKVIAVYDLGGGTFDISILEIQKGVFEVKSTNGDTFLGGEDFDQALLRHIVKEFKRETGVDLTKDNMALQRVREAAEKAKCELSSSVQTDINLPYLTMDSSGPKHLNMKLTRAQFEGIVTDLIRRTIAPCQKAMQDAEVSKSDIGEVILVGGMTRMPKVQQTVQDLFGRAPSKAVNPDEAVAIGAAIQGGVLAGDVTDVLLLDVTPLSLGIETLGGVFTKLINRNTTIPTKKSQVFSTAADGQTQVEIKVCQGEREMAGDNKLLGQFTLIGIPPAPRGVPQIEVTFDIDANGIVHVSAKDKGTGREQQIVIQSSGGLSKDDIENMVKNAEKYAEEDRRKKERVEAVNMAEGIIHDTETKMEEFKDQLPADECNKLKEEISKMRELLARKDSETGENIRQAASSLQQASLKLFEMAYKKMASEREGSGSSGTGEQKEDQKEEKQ

Human Hsp70-1A, recombinant (human), sequence (P0DMV8 whole entry): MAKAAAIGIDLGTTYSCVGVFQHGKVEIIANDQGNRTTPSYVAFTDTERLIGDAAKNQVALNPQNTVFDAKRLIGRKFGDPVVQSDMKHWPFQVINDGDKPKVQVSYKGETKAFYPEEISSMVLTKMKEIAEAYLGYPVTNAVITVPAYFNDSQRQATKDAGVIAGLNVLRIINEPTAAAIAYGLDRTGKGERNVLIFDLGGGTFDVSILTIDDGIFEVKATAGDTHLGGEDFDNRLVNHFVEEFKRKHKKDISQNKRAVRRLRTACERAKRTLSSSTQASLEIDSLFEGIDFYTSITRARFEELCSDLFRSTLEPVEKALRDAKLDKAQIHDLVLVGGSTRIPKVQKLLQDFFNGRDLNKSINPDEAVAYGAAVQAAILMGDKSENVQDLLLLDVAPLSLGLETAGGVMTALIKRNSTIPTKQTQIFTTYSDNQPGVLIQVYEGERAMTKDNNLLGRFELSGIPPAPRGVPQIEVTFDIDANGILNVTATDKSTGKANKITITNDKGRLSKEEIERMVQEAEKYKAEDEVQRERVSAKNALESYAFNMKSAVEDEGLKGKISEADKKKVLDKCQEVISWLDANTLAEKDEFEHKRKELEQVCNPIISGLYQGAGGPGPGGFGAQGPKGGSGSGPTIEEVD

As for NRLLLTGY [NR peptide (NRLLLTGY)], in assay [1], the EC50 of the stimulation of the basal ATPase activity of Hsp70-1A by NR peptide titration (1 mmol/L ATP, 37°C) turned out to be 170 µM and the relative stimulation of the basal ATPase activity of Hsp70-1A at increasing NR peptide concentrations; maximum reached at 500 μmol/L NR peptide was 15%. Besides, in assay [2], the EC50 of the stimulation of the basal ATPase activity of mortalin by NR peptide titration (1 mmol/L ATP, 37°C) was 7 µM and the relative stimulation of the basal ATPase activity of mortalin at increasing NR peptide concentrations; maximum reached at 100 μmol/L NR peptide stood at 25%.
